Assay results reported in paper PMC11997335.
Read-outs that look alike come from different tables or passages of the source.

Columns and labels:
Assay in all cases: single-molecule TIRF real-time association assay
[1] = biological target: human cytoplasmic dynein-1 complex (human) (UniProt Q14204)
[2] = biological target: human cytoplasmic dynein-1 complex (human) (UniProt Q14204); remark: listed apart in the source
[3] = biological target: human cytoplasmic dynein-1 complex (human) (UniProt Q14204); remark: listed apart in the source

| percent of complexes long-lived (>80 s) [1] [%] | dwell time, major peak [1] [s] | kon [1] [M⁻¹ s⁻¹] | percent of binding events short-lived (<20 s) [1] [%] | percent of complexes medium-lived (20–80 s) [1] [%] | percent of complexes short-lived (<20 s) [1] [%] | kon [3] [M⁻¹ s⁻¹] | Substance | koff [1] [s⁻¹] | fraction of dynein molecules bound by the end of data acquisition [2] [%] | koff [2] [s⁻¹] | percent of complexes long-lived (>80 s) [2] [%] | percent of complexes medium-lived (20–80 s) [2] [%] | percent of complexes short-lived (<20 s) [2] [%] |
| --- | --- | --- | --- | --- | --- | --- | --- | --- | --- | --- | --- | --- | --- |
| 16 | 5 | 9.21e+06 | 32 | 37 | 47 | 7.97e+06 | NINL (amino acids 1–702) with N-terminal HaloTag (from UniProt Q9Y2I6 1-702) (domain or fragment) | 0.0627 | 60 | – | – | – | – |
| 9 | 5 | – | 30 | 22 | 69 | – | dynactin complex purified from HEK293T cells stably expressing p62-Halo-3xFLAG (from UniProt Q9UJW0;Q14203;P61163) | – | – | – | – | – | – |

| Substance | percent of complexes long-lived (>80 s) [1] [%] | dwell time, major peak [1] [s] | kon [1] [M⁻¹ s⁻¹] | percent of binding events short-lived (<20 s) [1] [%] | percent of complexes medium-lived (20–80 s) [1] [%] | percent of complexes short-lived (<20 s) [1] [%] | kon [3] [M⁻¹ s⁻¹] | koff [1] [s⁻¹] | fraction of dynein molecules bound by the end of data acquisition [2] [%] | koff [2] [s⁻¹] | percent of complexes long-lived (>80 s) [2] [%] | percent of complexes medium-lived (20–80 s) [2] [%] | percent of complexes short-lived (<20 s) [2] [%] |
| --- | --- | --- | --- | --- | --- | --- | --- | --- | --- | --- | --- | --- | --- |
| BicD2 (amino acids 1–598) with N-terminal HaloTag (from UniProt Q8TD16 1-598) (domain or fragment) | 37 | – | – | – | – | – | – | 0.137 | < 25 | 0.038 | 6 | 22 | 72 |
